Some targets named below: CD40 (Homo sapiens (assumed), UniProt P25942); IL36R (Homo sapiens (assumed), UniProt Q9HB29); IL17A (Homo sapiens (assumed), UniProt Q16552).
Common to all, as to experiment: SPR
(SPR reads the build-up and loss of mass on a sensor chip optically.)

IL36R, sequence (Q9HB29 20-335): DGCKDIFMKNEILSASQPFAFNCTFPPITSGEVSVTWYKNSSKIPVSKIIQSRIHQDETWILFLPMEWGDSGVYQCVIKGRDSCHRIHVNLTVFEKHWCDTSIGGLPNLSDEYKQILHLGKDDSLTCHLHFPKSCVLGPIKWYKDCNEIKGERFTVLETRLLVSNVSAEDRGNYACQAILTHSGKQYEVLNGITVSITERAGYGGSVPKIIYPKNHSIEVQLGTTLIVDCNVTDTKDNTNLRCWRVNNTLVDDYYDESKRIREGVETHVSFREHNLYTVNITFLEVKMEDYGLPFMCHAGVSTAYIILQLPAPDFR
IL17A, sequence (Q16552 24-155): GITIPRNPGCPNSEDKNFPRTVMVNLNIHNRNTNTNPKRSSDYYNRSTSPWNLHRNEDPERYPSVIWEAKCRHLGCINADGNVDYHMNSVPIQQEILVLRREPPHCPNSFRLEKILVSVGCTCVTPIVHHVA
CD40, sequence (P25942 21-193): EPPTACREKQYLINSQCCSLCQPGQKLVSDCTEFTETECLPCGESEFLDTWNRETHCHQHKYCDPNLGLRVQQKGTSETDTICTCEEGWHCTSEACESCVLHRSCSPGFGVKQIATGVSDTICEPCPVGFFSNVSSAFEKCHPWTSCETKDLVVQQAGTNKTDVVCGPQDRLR

B1: Ravagalimab (Fab, V domains shown)
VH: EVQLVESGGGLVKPGGSLRLSCAASGFTFSDYGMNWVRQAPGKGLEWIAYISSGRGNIYYADTVKGRFTISRDNAKNSLYLQMNSLRAEDTAVYYCARSWGYFDVWGQGTTVTVSS
VL: DIVMTQSPDSLAVSLGERATINCKSSQSLLNRGNQKNYLTWFQQKPGQPPKLLIYWASTRESGVPDRFSGSGSGTDFTLTISSLQAEDVAVYYCQNDYTYPLTFGQGTKLEIK
As to B1, the binding result with CD40 is listed as “binds”.

B2: Spesolimab (Fab, V domains shown)
VH: QVQLVQSGAEVKKPGASVKVSCKASGYSFTSSWIHWVKQAPGQGLEWMGEINPGNVRTNYNENFRNKVTMTVDTSISTAYMELSRLRSDDTAVYYCTVVFYGEPYFPYWGQGTLVTVSS
VL: QIVLTQSPGTLSLSPGERATMTCTASSSVSSSYFHWYQQKPGQAPRLWIYRTSRLASGVPDRFSGSGSGTDFTLTISRLEPEDAATYYCHQFHRSPLTFGAGTKLEIK
B2: the binding result with IL36R is reported as “binds”.

B3: Afasevikumab (Fab, V domains shown)
VH: EVQLVESGGGLVQPGRSLRLSCAASGFTFDDYAMHWVRQAPGKGLEWVSGINWSSGGIGYADSVKGRFTISRDNAKNSLYLQMNSLRAEDTALYYCARDIGGFGEFYWNFGLWGRGTLVTVSS
VL: not shown
B3: the binding result with IL17A was “binds”.
